The values below come from doi:10.1101/177840.

For the assay, the target named is His-tagged full-length Ajuba (UniProt Q96IF1). The assay can be described thus: pull-down.

RPA70-OB½ABC, aa 234-612, sequence (P27694 234-612): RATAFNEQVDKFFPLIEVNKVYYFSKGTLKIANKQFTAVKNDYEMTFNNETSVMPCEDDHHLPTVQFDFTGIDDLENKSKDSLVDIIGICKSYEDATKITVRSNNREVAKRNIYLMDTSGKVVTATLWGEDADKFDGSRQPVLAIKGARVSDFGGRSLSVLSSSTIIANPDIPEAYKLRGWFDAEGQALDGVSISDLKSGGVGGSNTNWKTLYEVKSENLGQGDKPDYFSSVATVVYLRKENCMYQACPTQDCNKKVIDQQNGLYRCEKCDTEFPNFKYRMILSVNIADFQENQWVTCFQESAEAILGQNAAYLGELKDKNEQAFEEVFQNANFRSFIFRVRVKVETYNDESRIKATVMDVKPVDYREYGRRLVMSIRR

Turning to “RPA70-OB½ABC, aa 234-612 (from UniProt P27694 234-612) (domain or fragment)”, the pull down relative to full-length RPA70 (100%) came out at 58.7%.
